Assay results from publication doi:10.1101/2022.04.08.487678 (bioRxiv, 2022).

Biological target: CcdB, biotinylated (E. coli (F-plasmid), UniProt P62554 1-101)
Assay: flow cytometry on cells

CcdB, biotinylated, sequence (P62554 whole entry): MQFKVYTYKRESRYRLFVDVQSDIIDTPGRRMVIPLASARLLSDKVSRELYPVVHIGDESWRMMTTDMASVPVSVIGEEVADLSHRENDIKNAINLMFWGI

B1: CcdA wild type, displayed on the yeast surface (natural protein)
chain: MKQRITVTVDSDSYQLLKAYDVNISGLVSTTMQNEARRLRAERWKAENQEGMAEVARFIEMNGSFADENRDW
**Q.** With B1 as the binder, how does the Kd read?
**A.** 250 ± 50 pM
